Measured values from publication PMC6341108, “Anti-LRP5/6 VHHs promote differentiation of Wnt-hypersensitive intestinal stem cells” (Nature Communications, 2019).
Several values for one entry are separate records, joined by “and”; a condition that tells them apart may be missing. Equal values may be shown once.

How the values were obtained:
[1] = biological target: LRP6 P1E1P2E2 (Homo sapiens) (UniProt O75581); details: cited from earlier work
[2] = biological target: LRP6 P3E3P4E4 (Homo sapiens) (UniProt O75581); details: cited from earlier work
[3] = biological target: T1, human LRP6 β-propeller-EGF modules P3E3P4E4 (human, UniProt O75581 639-1244); assay: ITC
T1 chain: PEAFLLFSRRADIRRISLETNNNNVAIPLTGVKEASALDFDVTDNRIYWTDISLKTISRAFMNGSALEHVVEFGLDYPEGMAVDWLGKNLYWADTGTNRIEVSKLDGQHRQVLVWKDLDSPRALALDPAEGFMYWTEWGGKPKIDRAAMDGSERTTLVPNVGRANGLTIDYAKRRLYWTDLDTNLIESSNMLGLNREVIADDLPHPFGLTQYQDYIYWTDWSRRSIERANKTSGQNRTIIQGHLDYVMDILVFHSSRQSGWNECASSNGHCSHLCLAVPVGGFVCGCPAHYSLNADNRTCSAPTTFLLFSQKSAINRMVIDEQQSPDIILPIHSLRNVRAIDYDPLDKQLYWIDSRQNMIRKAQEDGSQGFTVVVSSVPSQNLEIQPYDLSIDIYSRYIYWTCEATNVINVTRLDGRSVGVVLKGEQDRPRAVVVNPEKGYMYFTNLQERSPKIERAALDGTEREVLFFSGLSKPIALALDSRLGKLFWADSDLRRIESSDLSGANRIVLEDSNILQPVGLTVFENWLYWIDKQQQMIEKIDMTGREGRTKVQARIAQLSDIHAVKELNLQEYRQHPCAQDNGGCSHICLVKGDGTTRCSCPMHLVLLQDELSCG

[4] = biological target: T2, human LRP6 β-propeller-EGF modules P3E3P4E4 (Homo sapiens); assay: cell-based or functional assay
T2 chain: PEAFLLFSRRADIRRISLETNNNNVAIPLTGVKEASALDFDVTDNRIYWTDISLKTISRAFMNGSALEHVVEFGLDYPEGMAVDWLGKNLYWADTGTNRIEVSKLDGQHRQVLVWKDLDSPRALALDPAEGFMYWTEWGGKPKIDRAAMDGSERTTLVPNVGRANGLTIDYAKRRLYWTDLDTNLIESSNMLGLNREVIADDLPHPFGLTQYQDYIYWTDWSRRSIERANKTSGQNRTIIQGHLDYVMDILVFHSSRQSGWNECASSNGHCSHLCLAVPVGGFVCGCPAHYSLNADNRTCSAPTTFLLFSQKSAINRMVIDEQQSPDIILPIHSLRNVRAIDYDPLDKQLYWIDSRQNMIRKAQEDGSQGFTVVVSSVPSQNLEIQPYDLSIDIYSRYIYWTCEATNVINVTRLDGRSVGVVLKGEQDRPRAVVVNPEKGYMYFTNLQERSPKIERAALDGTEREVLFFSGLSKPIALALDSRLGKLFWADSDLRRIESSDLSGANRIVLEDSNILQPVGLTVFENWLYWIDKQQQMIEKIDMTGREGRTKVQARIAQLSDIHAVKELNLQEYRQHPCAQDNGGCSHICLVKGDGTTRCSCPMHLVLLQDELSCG

[5] = biological target: T2, human LRP6 β-propeller-EGF modules …; assay: ITC; 10 µM LRP6^P3E3P4E4 in the cell, 100 µM VHH injected, DPBS, 25 °C, triplicate; details: both partners purified
[6] = biological target: T2, human LRP6 β-propeller-EGF modules …; assay: quartz crystal microbalance (QCM); LRP6^P3E3P4E4 immobilised by amine coupling on an Attana LNB chip; VHHs injected (0.03-0.25 µg/mL) in HBS-T, single-cycle kinetics, 22 °C, 1:1 fitting model; details: both partners purified
[7] = biological target: T3, human LRP6 β-propeller-EGF modules P3E3P4E4 (Homo sapiens); assay: ITC; 10 µM LRP6 P3E3P4E4 in the sample cell, 100 µM VHH injected, DPBS, 25 °C; triplicate; details: both partners purified
T3 construct: low-density lipoprotein receptor-related protein 6 (LRP6), human, domains P3E3P4E4; Cloned with an N-terminal cystatin secretion signal; also called LRP6^P3E3P4E4; LRP6 P3E3P4E4; source: HEK293 GnTI- cells, transiently co-expressed with human MESD, secreted, purified (Ni-Sepharose excel, SEC)
T3 chain: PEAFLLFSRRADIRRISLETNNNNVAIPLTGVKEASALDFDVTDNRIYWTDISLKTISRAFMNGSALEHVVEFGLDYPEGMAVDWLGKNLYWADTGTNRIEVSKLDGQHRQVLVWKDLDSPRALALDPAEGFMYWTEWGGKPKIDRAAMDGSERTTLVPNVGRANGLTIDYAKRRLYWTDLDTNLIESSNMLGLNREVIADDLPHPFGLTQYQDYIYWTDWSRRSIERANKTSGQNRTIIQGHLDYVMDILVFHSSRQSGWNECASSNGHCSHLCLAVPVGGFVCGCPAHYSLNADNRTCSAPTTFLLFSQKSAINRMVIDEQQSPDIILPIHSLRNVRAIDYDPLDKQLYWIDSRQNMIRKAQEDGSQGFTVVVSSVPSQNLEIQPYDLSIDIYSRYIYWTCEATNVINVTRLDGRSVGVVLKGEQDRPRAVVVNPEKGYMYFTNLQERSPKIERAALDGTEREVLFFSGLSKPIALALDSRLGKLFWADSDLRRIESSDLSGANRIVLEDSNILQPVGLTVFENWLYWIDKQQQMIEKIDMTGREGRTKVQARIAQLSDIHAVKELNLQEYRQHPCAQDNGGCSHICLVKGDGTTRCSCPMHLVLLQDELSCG

[8] = biological target: T4, human LRP6 β-propeller-EGF modules P3E3P4E4 (Homo sapiens); assay: quartz crystal microbalance (QCM); LRP6 P3E3P4E4 immobilised by amine coupling on an Attana LNB chip; VHH injected at four rising concentrations (single cycle kinetics); 22 °C, HBS-T, 25 µL/min; 1:1 fitting model; details: both partners purified
T4 construct: Low-density lipoprotein receptor-related protein 6 (LRP6), human, domains P3E3P4E4; the methods say Uniprot residues 639-1244, the results say UNIPROT residues 629-1244; Expressed from pUPE107.03 with an N-terminal cystatin secretion signal; also called LRP6^P3E3P4E4; LRP6 P3E3P4E4; source: HEK293 GnTI- cells, transiently co-expressed with human MESD, secreted, purified (Ni-Sepharose excel, SEC …)
T4 chain: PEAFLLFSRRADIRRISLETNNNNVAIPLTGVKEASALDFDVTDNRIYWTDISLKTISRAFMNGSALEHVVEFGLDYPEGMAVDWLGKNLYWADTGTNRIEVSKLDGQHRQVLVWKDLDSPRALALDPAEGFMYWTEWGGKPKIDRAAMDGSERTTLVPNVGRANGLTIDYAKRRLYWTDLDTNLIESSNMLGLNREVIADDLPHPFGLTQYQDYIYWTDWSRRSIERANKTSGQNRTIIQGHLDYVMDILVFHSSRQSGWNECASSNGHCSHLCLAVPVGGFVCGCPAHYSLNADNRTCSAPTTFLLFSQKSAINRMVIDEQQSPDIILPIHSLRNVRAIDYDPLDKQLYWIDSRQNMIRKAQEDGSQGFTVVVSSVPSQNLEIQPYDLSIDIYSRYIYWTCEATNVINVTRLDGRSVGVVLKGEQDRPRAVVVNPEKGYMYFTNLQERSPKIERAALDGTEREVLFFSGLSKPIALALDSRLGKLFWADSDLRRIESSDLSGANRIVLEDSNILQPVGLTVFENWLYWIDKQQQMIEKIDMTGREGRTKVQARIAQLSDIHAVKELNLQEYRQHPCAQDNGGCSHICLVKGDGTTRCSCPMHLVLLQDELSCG

LRP6 P3E3P4E4 (Homo sapiens), sequence (O75581 631-1246): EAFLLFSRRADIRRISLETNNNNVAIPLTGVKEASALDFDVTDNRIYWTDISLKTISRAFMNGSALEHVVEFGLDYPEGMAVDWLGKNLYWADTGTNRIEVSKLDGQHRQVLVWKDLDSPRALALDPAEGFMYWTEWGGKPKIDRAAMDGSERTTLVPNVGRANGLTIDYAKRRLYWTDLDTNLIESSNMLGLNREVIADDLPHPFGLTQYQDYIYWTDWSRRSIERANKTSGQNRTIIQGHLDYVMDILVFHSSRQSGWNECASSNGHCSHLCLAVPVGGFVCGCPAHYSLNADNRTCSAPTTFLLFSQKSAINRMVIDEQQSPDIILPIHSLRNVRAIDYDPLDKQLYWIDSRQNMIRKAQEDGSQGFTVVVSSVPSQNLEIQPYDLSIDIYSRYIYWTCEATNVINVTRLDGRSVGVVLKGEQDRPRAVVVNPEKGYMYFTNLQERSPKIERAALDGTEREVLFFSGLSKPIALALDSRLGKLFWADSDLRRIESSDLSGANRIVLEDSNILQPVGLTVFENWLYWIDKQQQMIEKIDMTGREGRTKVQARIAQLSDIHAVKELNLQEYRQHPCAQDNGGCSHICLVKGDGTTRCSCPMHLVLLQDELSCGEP
LRP6 P1E1P2E2 (Homo sapiens), sequence (O75581 20-630): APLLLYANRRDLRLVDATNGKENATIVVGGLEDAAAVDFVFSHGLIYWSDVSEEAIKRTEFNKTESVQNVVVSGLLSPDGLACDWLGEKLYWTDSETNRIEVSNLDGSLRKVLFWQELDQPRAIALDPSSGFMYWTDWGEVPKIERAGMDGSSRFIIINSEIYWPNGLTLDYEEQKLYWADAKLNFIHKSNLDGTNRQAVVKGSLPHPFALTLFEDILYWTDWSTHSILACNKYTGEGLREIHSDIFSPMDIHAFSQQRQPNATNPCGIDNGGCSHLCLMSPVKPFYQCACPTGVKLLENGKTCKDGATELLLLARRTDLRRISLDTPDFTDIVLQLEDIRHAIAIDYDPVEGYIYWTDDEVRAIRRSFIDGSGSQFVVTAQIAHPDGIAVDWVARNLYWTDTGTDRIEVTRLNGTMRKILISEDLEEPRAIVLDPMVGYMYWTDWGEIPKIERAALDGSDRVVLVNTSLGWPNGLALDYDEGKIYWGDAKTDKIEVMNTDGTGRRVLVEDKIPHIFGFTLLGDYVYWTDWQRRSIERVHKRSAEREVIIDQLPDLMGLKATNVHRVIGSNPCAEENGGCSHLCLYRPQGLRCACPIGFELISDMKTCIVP

Q: Which Kd [1] does the source give for DKK1 DKK1_C (from UniProt O94907) here?
A: 70 nM

Q: What about the Kd [2] of the same molecule?
A: 70 nM

B1: anti-LRP6 VHH L-P2-B10 with C-terminal V5-FLAG3-His6-tag (VHH)
VHH: EVQLQESGGCLVQAGGSLRLSCAASGSTFSTYTIGWFRQAPGKEREFVAAIHWDGGQTYYADSVKGRFTISRDNAKNTVYLQMNSLKPEDTAVYYCAARGRRYFDFTYSDVYDYWGQGTQVTVSS
notes: Selected by CIS display from a fully synthetic VHH library; also called anti-LRP6^P3E3P4E4 VHH; anti-LRP5/6^P3 VHH; source: E. coli BL21 (BL21-Gold), purified (IMAC, SEC Superdex 75); not shown: V5, C-terminal, kept; FLAG3, C-terminal, kept; His6, C-terminal, kept
Q: With B1 as the molecule, how does the Kd [3] read?
A: 12.8 nM

Q: And the “IC50 of inhibition of cellular responses to Wnt3a (Wnt luciferase reporter, HEK293T); blocks Wnt3a with LRP6” value [4]?
A: 82 nM

Q: And the “IC50 of inhibition of cellular responses to the combination of Wnt3a and R-spondin1 (Wnt luciferase reporter, HEK293T); blocks Wnt3a with LRP6” value [4]?
A: 40 nM

Q: And the Kd [5]?
A: < 40 nM

Q: And the “stoichiometry N” value [5]?
A: 1

Q: And the koff [6]?
A: ~0.0001 s⁻¹

Q: What about the kon [6] of the same molecule?
A: ~100000 M⁻¹ s⁻¹

B2: anti-LRP6 VHH L-P2-B10 (VHH)
VHH: EVQLQESGGCLVQAGGSLRLSCAASGSTFSTYTIGWFRQAPGKEREFVAAIHWDGGQTYYADSVKGRFTISRDNAKNTVYLQMNSLKPEDTAVYYCAARGRRYFDFTYSDVYDYWGQGTQVTVSS
notes: they are in the deposited structure of its complex with LRP6 P3E3P4E4 (PDB 6H15 or 6H16); Selected by CIS display from a fully synthetic VHH library; source: E. coli BL21, purified (IMAC, SEC); not shown: V5, C-terminal, kept; FLAG3, C-terminal, kept; His6, C-terminal, kept
Q: For B2, which Kd [7] is on record?
A: 14.5 nM and 11.9 nM and 12.2 nM

Q: What about the “stoichiometry N” value [7] of the same molecule?
A: 1.09 and 1.08 and 1.15

B3: anti-LRP6 VHH L-P2-B10, C-terminal V5-FLAG3-His6-tagged (VHH)
VHH: EVQLQESGGCLVQAGGSLRLSCAASGSTFSTYTIGWFRQAPGKEREFVAAIHWDGGQTYYADSVKGRFTISRDNAKNTVYLQMNSLKPEDTAVYYCAARGRRYFDFTYSDVYDYWGQGTQVTVSS
notes: also in the deposited structure of the complex with LRP6 P3E3P4E4; Selected by CIS display from a fully synthetic VHH library; source: E. coli BL21 Gold, purified (IMAC, SEC Superdex 75); not shown: V5, C-terminal, kept; FLAG3, C-terminal, kept; His6, C-terminal, kept
Q: Which results are given for B3?
A: Kd [8]: 0.8 nM; koff [8]: 0.00014 s⁻¹; kon [8]: 180000 M⁻¹ s⁻¹

B4: anti-LRP6 VHH L-P2-H07, C-terminal V5-FLAG3-His6-tagged (VHH)
VHH: EVQLQESGGGLVQAGGSLRLSCAASGDIISSYRMGWFRQAPGKEREFVSDITPSIGHTYYADSVKGRFTISRDNAKNTVYLQMNSLKPEDTAVYYCRAVDRSYRYPYEYWGQGTQVTVSS
notes: Selected by CIS display from a fully synthetic VHH library; No structure of its complex was deposited; source: E. coli BL21 Gold, purified (IMAC, SEC Superdex 75); not shown: V5, C-terminal, kept; FLAG3, C-terminal, kept; His6, C-terminal, kept
Q: With B4 as the molecule, how does the Kd [3] read?
A: 17.5 nM

Q: And the Kd [8]?
A: 2.3 nM

Q: And the koff [8]?
A: 0.00018 s⁻¹

Q: What about the kon [8] of the same molecule?
A: 81000 M⁻¹ s⁻¹

B5: anti-LRP6 VHH L-P2-D07, C-terminal V5-FLAG3-His6-tagged (VHH)
VHH: EVQLQESGGGLVQAGGSLRLSCAASGRTFSIYTIGWFRQAPGKEREFVAEITWSGGSTYYADSVKGRFTISRDNAKNTVYLQMNSLKPEDTAVYYCAAITYTRGIYKYWGQGTQVTVSS
notes: also in the deposited structure of the complex with LRP6 P3E3P4E4; Selected by CIS display from a fully synthetic VHH library; also called L-P2-D07-V5-Flag3-His6; source: E. coli BL21 Gold, purified (IMAC, SEC Superdex 75); not shown: V5, C-terminal, kept; FLAG3, C-terminal, kept; His6, C-terminal, kept
Q: For B5, which Kd [8] is on record?
A: 0.4 nM

Q: What about the koff [8] of the same molecule?
A: 0.00015 s⁻¹

Q: What about the kon [8] of the same molecule?
A: 370000 M⁻¹ s⁻¹

B6: anti-LRP6 VHH L-P2-D07 with C-terminal V5-FLAG3-His6-tag (VHH)
VHH: EVQLQESGGGLVQAGGSLRLSCAASGRTFSIYTIGWFRQAPGKEREFVAEITWSGGSTYYADSVKGRFTISRDNAKNTVYLQMNSLKPEDTAVYYCAAITYTRGIYKYWGQGTQVTVSS
notes: as for B1
Q: With B6 as the molecule, how does the “IC50 of inhibition of cellular responses to Wnt3a (Wnt luciferase reporter, HEK293T); blocks Wnt3a with LRP6” value [4] read?
A: 94 nM

Q: And the “IC50 of inhibition of cellular responses to the combination of Wnt3a and R-spondin1 (Wnt luciferase reporter, HEK293T); blocks Wnt3a with LRP6” value [4]?
A: 40 nM

Q: What about the Kd [5] of the same molecule?
A: < 40 nM

Q: And the “stoichiometry N” value [5]?
A: 1

Q: What about the koff [6] of the same molecule?
A: ~0.0001 s⁻¹

Q: And the kon [6]?
A: ~100000 M⁻¹ s⁻¹

B7: anti-LRP6 VHH L-P2-D07 (VHH)
VHH: EVQLQESGGGLVQAGGSLRLSCAASGRTFSIYTIGWFRQAPGKEREFVAEITWSGGSTYYADSVKGRFTISRDNAKNTVYLQMNSLKPEDTAVYYCAAITYTRGIYKYWGQGTQVTVSS
notes: as for B2
Q: Which results are given for B7?
A: Kd [7]: 30.3 nM and 35.7 nM and 29.4 nM; stoichiometry N [7]: 0.921 and 0.893 and 0.881
